# Assay results from paper PMC3124622.
# System: Nc1nc2nc[nH]c2c(=O)[nH]1
# Test: purified protein, by the assay type
# Details: guanine as substrate, 20 μM tRNA, 37 °C, pH 7.3
substance,measurement,setting,value
E. coli TGT C145V/T146V (Escherichia coli K-12; C145V/T146V),Km,other: C145V/T146V,0.87 (0.18) μM
same,kcat,other: C145V/T146V,0.00053 s⁻¹
E. coli TGT V217G (Escherichia coli K-12; V217G),Km,other: V217G,1.00 (0.10) μM
same,kcat,other: V217G,0.000259 s⁻¹
